Source: the nanobody polyreactivity screen of Harvey et al. (2022)

Experiment: yeast display, Sf9 membrane polyspecificity reagent, FACS + sequencing; frameworks hold sequencing errors
In short: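 Using colony PCR, genes from sorted yeast display clones were amplified, then sequenced on MiSeq at 2 × 250 and filtered by CDR length. The clones had been stained with 10% biotinylated, detergent-solubilized Sf9 membrane reagent for 1 hour at 4 °C and sorted by FACS into low and high (top ~1%) gates on anti-HA and streptavidin fluorescence. Polyreactivity labels come from the gate of origin.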

Row | Sequence | polyreactivity (PSR sort gate)
1 | QVQLVESGGGLVQAGGSLRLSCAASGSIFWLYAMGWYRQAPGKERELVATISSTGSTDYADSVKGRFTISRDNAKNTVYLQMNSLKPEDTAVYYCATDVFYSIFTPSPFEYDYWGQGTQVTVSS | high polyreactivity
2 | QVQLVESGGGLVQAGGSLRLSCAASGSIFWNNAMGWSRQAPGKERELVAAISKSGTRTYYADSVKGRFTISRDNAKNTVYLQMNSLKPEDTAVYYCNALLRDSGTYAGDDYWGQGTQVTVSS | high polyreactivity
3 | QVQLVESGGGLVQAGGSLRLSCAASGSIFWNNAMGWYRQAPGKEREFVATITWSGDSTYYADSVKGRFTISRDNAKNTVYLQMNSLKPEDTAVYYCAALLDYSVADLYSHHVSRYYYWGQGTQVTVSS | low polyreactivity
4 | QVQLVESGGGLVQAGGSLRLSCAASGSIFWQNTMGWYRQAPGKERELVAAISWSGGRTYYADSVKGRFTISRDNAKNTVSLPMNSLKPEDTAVYYCNKLLSQRRYHSEMDYWGQGTQVTVSS | high polyreactivity
5 | QVQLVESGGGLVQAGGSLRLSCAASGSIFWRNAMGWYRQAPGKERELVAAITSGGTTNYADSVKGRFTISRDNAKNTVYLQMNSLKPEDTAVYYCATGASYLRRYDHPHSDVDYWGQGTQVTVSS | low polyreactivity
6 | QVQLVESGGGLVQAGGSLRLSCAASGSIFWSNAMGWYRQAAGKERELVASITRSGGSTYYADSVKGRFTISRDNAKNTVYLQMNSLKPEDTAVYYCAARTRGSSYHFDYWGQGTQVTVSS | high polyreactivity
7 | QVQLVESGGGLVQAGGSLRLSCAASGSIFWSNAMGWYRQAPGKEREFVAAITWSGDNTYYADSVKGRFTISRDNAKNTVYLQMNSLKPEDTAVYYCNTEWGLFYDWTVLHIYLHGYYYWGQGTQVTVSS | low polyreactivity
8 | QVQLVESGGGLVQAGGSLRLSCAASGSIFWSNSMGWDRQAPGKERELDAAISQDGGSTNYADSVKGRFTISRDNAKNTVYLQMTSQKPEDTAVYYCAVKYWSYEPPSYSIEYGYWGQGTQVTVSS | low polyreactivity
9 | QVQLVESGGGLVQAGGSLRLSCAASGSIFWSYAMGWYRQAPGKEREFVAAIRGRGGNTYADSVKGRFTISRDNAKNTVYLQMNSLKPEDTAVYYCAAPLLRDLRSPYSYNYWGQGTQVTVSS | low polyreactivity
10 | QVQLVESGGGLVQAGGSLRLSCAASGSIFWSYDMGWYRQAPGKERELVPTITSGDSTYYADSVKGRFTISRDNAKNTVYLQMNSLKPEDTAVYYCAAGTYYRRTYWHREYDYWGQGTQVTVSS | low polyreactivity
11 | QVQLVESGGGLVQAGGSLRLSCAASGSIFWSYGMGWYIQAPGKERELVASTRYADSVKERFTISRDNAKNTVYLLMNSLKPEDTAVYYCAADVWTLDPDEYDYWGQGTQVTVSS | low polyreactivity
12 | QVQLVESGGGLVQAGGSLRLSCAASGSIFWSYGMGWYRQAPGKERELVASTRYADSVKGRFTISRDNAKNTVYLQMNSLKPEDTAVYYCNVRYYGYRFGDDYWGQGTQVTVSS | low polyreactivity
13 | QVQLVESGGGLVQAGGSLRLSCAASGSIFWTNAMGCYIQAPGKERELVAAITGGGTTYYADSVKGRFTISRDNAKNTVYLQMNSLKPEDTAVVYTVSSAQYDYWGQGTQVTVSS | low polyreactivity
14 | QVQLVESGGGLVQAGGSLRLSCAASGSIFWTYAMGWYRQAPGKERELVAAITTGGSTYYADSVKGRFTISRDNAKNTVYLQMNSLKPEDTAVYYCAVDHLTRSGDGEYWGQGTQVTVSS | high polyreactivity
15 | QVQLVESGGGLVQAGGSLRLSCAASGSIFWWNAMGWYRQAPGKERELVGAITVSGSSTHYADSVKGRFTISRDNAKNTVYLQMNSMKPEDTAVYYWGQGTQVTVSS | low polyreactivity
16 | QVQLVESGGGLVQAGGSLRLSCAASGSIFWYNAMAWYRQAPGKERELVAAITGTGDRTYYADSVKGRFTISRDNAKNSVYLQMNSLKPEDSAVYYCAAAYGAYYPWGYDYWGQGTQVTVSS | low polyreactivity
